Laboratory results: the supplement of paper PMC9170038

Test system: MS2 coat protein
Assay: apparent KD of MS2 coat protein; designed switch direction (-1 OFF switch, 1 ON switch): 1; higher = weaker reporter binding
In short: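 RNA switches sharing common flanks were transcribed by stalled E. coli RNA polymerase on Illumina chips. A doubling series of SNAP-549-labelled MS2 coat protein, from 0.7 or 1.5 nM to 3 µM, was applied in Tris-HCl pH 7.5 buffer with KCl, MgCl2, BSA, DTT, tRNA and Tween-20. Each step lasted 0.8–1.5 h at the bottom of the series and 10–20 min at the top. Normalised cluster fluorescence was curve-fitted, giving apparent KD as the per-design median over clusters.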

[1] = input ligand: microRNA oligo, concentration not stated
[2] = Eterna round: R95, input ligand: FMN 200 uM
[3] = Eterna round: R95, input ligand: microRNA oligo, concentration not stated
[4] = Eterna round: R95, input ligand: none

Sequence | apparent KD of MS2 coat protein (input ligand: FMN 200 uM) [nM] | apparent KD of MS2 coat protein [1] [nM] | apparent KD of MS2 coat protein (input ligand: none) [nM] | apparent KD of MS2 coat protein [2] [nM] | apparent KD of MS2 coat protein [3] [nM] | apparent KD of MS2 coat protein [4] [nM]
GCCAACACAUGAGGAUAUGGCACCUUAUUGGUGCCAGAAGGCAUGUCUAUUGACAUGAGGAUCACCCAUGUAUUAUAGUUGGCA [Fiskers NG1ss - 14] (Eterna round: R96, puzzle: Same State NG 1) | 75.2 | 214 | 1210 | – | – | –
GUGGUCAGACAUGAGGAUCACCCAUGUGGAAUAAAUAAGGGACAGGAUAUUCAAUAUAGGAUAUAGAAGAAGGGUUGGUUGGUG (Eterna round: R96, puzzle: Same State NG 3) | – | 104 | – | – | – | –
CUGAAAUGUCAAGGAUAUCACGUCGAUUAGACGUGAGAAGGUGAUCUGCACAUGAGGAUCACCCAUGUGUUACAUGGGAGUCAG [Brourd's SSNG1/1-A2 mod 16] (Eterna round: R96, puzzle: Same State NG 1) | 600 | 324 | 891 | – | – | –
AUUAAUUAAUUAAUACAUGAGGAUCACCCAUGUAAUAAGAUCUAGGAUAUCAGCUCGAAUAGAGCUGAGAAGGAGAUCACAUGU [SSNG3/17-A1] (Eterna round: R96, puzzle: Same State NG 3) | – | 31.1 | – | – | – | –
UGGUACAUGGGAGGAUAUCAUGUAGAAACAUGAGGAUCACCCAUGUUGAUGGAGACAUCGGAGAUUGAGAAGGCCCAUGUACCU [JL SSNG1 3.57] (Eterna round: R96, puzzle: Same State NG 2) | 15.6 | 33.6 | 46 | – | – | –
AGCUAUUAAUCAGGAUAUGGUGACAUGAGGAUCACCCAUGUAUUGAUGAUUAAAUGUGGUCAAUACCAGAAGGGAUUACUAACA [SameState NG2 #51] (Eterna round: R96, puzzle: Same State NG 2) | 44.6 | 401 | 537 | – | – | –
AGUCCAGCAUGAGCUGGACAAAAGCAUGUACAUGAGGAUCACCCAUGUUCAUGUACAAGCUUUUUGCUCGUCUUAAA [Mat - hsa-mir-208a - Mod of JL - 45] (puzzle: Sensor for hsa-mir-208a) | – | – | – | 807 | 17.5 | 562
UGGCUCAGACGAGGAUAUGGUCAUGGCGCUUCGGCGCAUACAUGAGGAUCACCCAUGUAGGGUGAUCAGAAGGCGUCUGAGCCA [SSNG2/9-A2] (Eterna round: R96, puzzle: Same State NG 2) | 87.2 | 573 | 715 | – | – | –
AUACUCAUGUAAGGAUAUGCAGCCGAAACGGCUGCAGAAGGUACUAUAAUACAUGAGGAUCACCCAUGUCUCUAUUAUUUAGUU [Mat - Same State NG 1 - JL mod - D98] (Eterna round: R96, puzzle: Same State NG 1) | 89.5 | 46.5 | 101 | – | – | –
UUUACUUUCAUAGGAUAUCAUGCGAAAAUUGCGUGAGAAGGGUGCACACUGUCUUUCUAGGAGUACAUGAGGAUCACCCAUGUG [SameState NG1 #66] (Eterna round: R96, puzzle: Same State NG 1) | 52.4 | 48.3 | 50.9 | – | – | –
CUGAGCGAUUAAGGAUAUCACGUCGAAUAGACGUGAGAAGGUGAUCAUAACAUGAGGAUCACCCAUGUAUUACAUGAAGCUCAG [SSNG1/3-A1] (Eterna round: R96, puzzle: Same State NG 1) | 305 | 100 | 108 | – | – | –
UUGCGCUGUCGAGAGGAUAUGCGGUGAUGGACAUGAGGAUCACCCAUGUUAGCGAUAGCAUUACGGUAGAAGGCUCUACAGCUGC [salish99_ss2_r3_094] (puzzle: Same State 2) | – | – | – | 13 | 21.5 | 21.9
GUUACAUGAGGAUCACCCAUGUAUGUGUGGGAGUAAGUGUCUUAGGAUAUCUAUGGUUUAAUUUAAGAGAAGGAAGAUUGUUGU [JMF's solution 72] (Eterna round: R96, puzzle: Same State NG 3) | 111 | 73.9 | 96.6 | – | – | –
